# In the nanobody polyreactivity screen of Harvey et al. (2022):
# Experiment: yeast display, Sf9 membrane polyspecificity reagent, FACS + sequencing; frameworks hold sequencing errors
# Procedure, shortened: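 Galactose-induced (36–48 hours) yeast carrying a synthetic nanobody display library were exposed to 10% biotinylated, detergent-solubilized Sf9 membrane reagent at 4 °C for 1 hour. FACS followed streptavidin microbead enrichment, using low and high (top ~1%) gates for expression (anti-HA) and reagent binding (streptavidin). Colony PCR, MiSeq 2 × 250 sequencing and CDR-length filtering followed. Labels for polyreactivity reflect the gate of origin.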
row,Sequence,polyreactivity (PSR sort gate)
1,QVHLVESGGGLVQAGGSLRLSCAASGFTFGVYAMGWYRQAPGKEREFVAAISTTVGSTYYADSVKGRFTISRDNAKNTVYLQLNSLKPEDTAVYYCAAEYTGYINYYIYEYWGQGTQVTVSS,low polyreactivity
2,QVHLVESGGGLVQAGGSLRLSCAASGFTFGWNAMGWYRQAPGKERELVASINSGGSTYNADSVKGRFTISRDNAKNTVYLEMNFLKPEDTAVYYCATAPYVTSRRYGPYEYWGQGSQVTVSS,low polyreactivity
3,QVHLVESGGGLVQAGGSLRLSCAASGFTFNRYAMGWYRQAPGKERELVATISSGGNTNYADSVKGRFTISRDNAKKTVYLQMNSLKPEDTAVYYCNADRWFHYYSYNYWGQGTQVTVSS,high polyreactivity
4,QVHLVESGGGLVQAGGSLRLSCAASGFTILTYGMGWYRQAPGKERELVAAIRWSGGRTYYADSVKGRFTISRDNAKNTVYLQMNSLKPEDTAVYYCAARYKFSTIRGVDYWGQGTQVTVSS,high polyreactivity
5,QVHLVESGGGLVQAGGSLRLSCAASGFTLYGNVMGWYRPAPGKERELVAAISWSTDSTYYADSLKGRFTISRDNAKNTVYLQMNSLKPEDTAIYYCAADYSHLPIAWYYYWGQGTQVTVSS,low polyreactivity
6,QVHLVESGGGLVQAGGSLRLSCAASGGIFDYYAMGWYRQAPGKERELVATISRGGSTYYADSVKGRFTISRDNAKNTVYLQMNSLKPEDTAVYYCAARQTRYWYRAWFVEHDYWGQGTKVTVSS,high polyreactivity
7,QVHLVESGGGLVQAGGSLRLSCAASGGIFYTYAMGWYRQAPGKEREMVAAISWRGGSTYYADSVKGRFTISRDNAKNTVYLQMNSLNPEDSAVYYCNKVTDYYYQIYWSYPYFTPDYFWGQGTQVTVSS,high polyreactivity
8,QVHLVESGGGLVQAGGSLRLSCAASGGTFDKNAMGWYSQAPGKESEFVAAITYGGGSTYYADSVKGRFTISRDNAKNTVYLQMTSLKPEDSAVYYCAVAIITYPYATGSSYDYWGQGTQVTVSS,low polyreactivity
9,QVHLVESGGGLVQAGGSLRLSCAASGGTFLVNAMGWYRQAPGKERELVAAINWSGGGTTYADSVKGRFTISRDNAKNTVYLQMNSLKPEDTAVYYCATGSYTTYGYGYWGQGTQVTVSS,high polyreactivity
10,QVHLVESGGGLVQAGGSLRLSCAASGGTFRTYAMGWYRQAPGTERELVAAITWRGGSTYYADSVKGRFTISRDNAKNTVYLQMNSLKPEDTAVYYCAARGAYQWSFYKDDYWGQGTQVTVSS,high polyreactivity
11,QVHLVESGGGLVQAGGSLRLSCAASGIIFDEYAMGWYSQAPGKERELVAAINWSGGITYYADSVKGRFTISRDNAKNTVYLQMNSLKPEDTAVYYCNKDPLVFDYWGQGTQVTVSS,low polyreactivity
12,QVHLVESGGGLVQAGGSLRLSCAASGIISGGNAMGWYRQAPGKDRELVASINSGGSTNYADSVKGRFTISRDNALNSLYLKMNSLKPDDTAVYYGAGDYIDSTAYDYWGQGTKVTVSS,low polyreactivity
13,QVHLVESGGGLVQAGGSLRLSCAASGITFRRNTMGWYRQAPGKERELVATISWRGGNTFYADSVKRRFTISRDNAKNTVYLQMHSLKPEDTAVYYCAVAFKGPSGYQYDYWGQGTQVTVSS,high polyreactivity
14,QVHLVESGGGLVQAGGSLRLSCAASGITFYLYAMGRYRQAPAKERELVAAINASGGSTYYADSVKGRFTISRDNAKNTVYLQMNSLKPEDSGVYYCAASTKKTRGFNYWGQGSQVTVSS,high polyreactivity
15,QVHLVESGGGLVQAGGSLRLSCAASGLIFLYYAMGWYRQAPGKERELVAAISSGGSTYYADSVKGRFTISRDNAKNTVFLQMNSLTPEDTAVYYCAAADSYSSLEYWGQGTQVTVSS,high polyreactivity
16,QVHLVESGGGLVQAGGSLRLSCAASGLIFYDNMGWYRQAPGKERELVAAISSSGGSTSYADSVKGRFTISRDNAKNTVYLQMYSLKPEDTAVYYCAADSYPAYLGFVGYDYWGQGTQVTVSS,low polyreactivity
